1 molecule from article PMC9088798, “An Approach to Derive Functional Peptide Inhibitors of Transcription Factor Activity” (JACS Au, 2022) can be followed below.

In the data set the test system is WT-mDHFR. As to the kind of experiment: DHFR activity assay (NADPH turnover at 340 nm), WT-mDHFR. Particulars: 100 nM WT-mDHFR, 60 µM NADPH, 50 µM DHF, no inhibitor; absorbance 340 nm; first 2.5 min, blank subtracted; average of triplicate experiments, one SD. The class given is biochemical, murine. As for the experimental part:
(A) Fifteen TRE sites were introduced into the mDHFR gene (2 silent and 13 substitutions) to allow for a cJun-induced transcriptional block. […] Change in absorbance at 340 nm was measured to determine the rate of NADPH turnover by (B) WT-mDHFR and (C) TRE-mDHFR with or without the substrate DHF. […] Specific activity was calculated from the linear initial rate (first 2.5 min for WT-mDHFR, first 10 min for TRE-mDHFR; +NADPH only reaction blank subtracted). Data are averages from triplicate experiments with errors shown as one standard deviation.
Jupiter Proteo column (4-μm particle size, 90 Å pore size, 250 × 10 mm; Phenomenex) using a water:acetonitrile gradient (0.1% TFA). Peptides without a SUMO tag, were concentrated after Histrap elution and HPLC purified. […]
or Mtx (1 µM in reaction). Reactions were initiated by the addition of DHF (50 µM in reaction plus a blank reaction with no DHF) and the absorbance at 340 nm of samples was measured using a Varian Cary 50 UV-Vis spectrophotometer. The specific activity (∆OD/minsample― ∆OD/minblank) was calculated using the following equation. Specific activity = 12.3× mg protein Library Construction and TBS Assay: Library inserts were produced using PCR fill-in reactions from synthesised primers (Sigma) with degenerate codons at the desired positions to produce the correct residue options. […]

B1: WT-mDHFR: wild-type murine dihydrofolate reductase, 6xHis-tagged (protein, UniProt P00375 2-187, looked up)
Dihydrofolate reductase: VRPLNCIVAVSQNMGIGKNGDLPWPPLRNEFKYFQRMTTTSSVEGKQNLVIMGRKTWFSIPEKNRPLKDRINIVLSRELKEPPRGAHFLAKSLDDALRLIEQPELASKVDMVWIVGGSSVYQEAMNQPGHLRLFVTRIMQEFESDTFFPEIDLGKYKLLPEYPGVLSEVQEEKGIKYKFEVYEKKD
modifications: 6xHis tag
notes: wild-type murine dihydrofolate reductase, 6xHis-tagged
Take B1: the “Specific activity, +NADPH+DHF” value is given as 0.263 ± 0.002 μmol / min / mg protein.
